Reference: the supplement of paper PMC10567573

B1: STK38L (parent)
chain: NWKETLVFPPEVPISEKAKDLILR

Variants of: B1
Experiment: protein stability index of a GFP-peptide fusion (GPS, HEK-293T) (PSI 1-6); higher = more stable
Conditions: c terminus: a fixed tail appended
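Note: lentivirally expressed fusions sorted by FACS into six bins by GFP to DsRed ratio, PSI derived from sequencing read proportions per bin multiplied by bin number.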

Variant | protein stability index
NWCETLVFPPEVPISEKAKDLILR [K3C] | 2.59
NWRETLVFPPEVPISEKAKDLILR [K3R] | 3.12
NWHETLVFPPEVPISEKAKDLILR [K3H] | 3.68
NWYETLVFPPEVPISEKAKDLILR [K3Y] | 2.18
NWWETLVFPPEVPISEKAKDLILR [K3W] | 2.07
NWKETLVAPPEVPISEKAKDLILR [F8A] | 4.08
NWKETLVCPPEVPISEKAKDLILR [F8C] | 4.02
NWKETLVQPPEVPISEKAKDLILR [F8Q] | 3.53
NWKETLVDPPEVPISEKAKDLILR [F8D] | 3.9
NWKETLVTPPEVPISEKAKDLILR [F8T] | 3.58
NWKETLVWPPEVPISEKAKDLILR [F8W] | 3.5
NWKETLVLPPEVPISEKAKDLILR [F8L] | 2.94
NWKETLVSPPEVPISEKAKDLILR [F8S] | 3.73
NWKETLVVPPEVPISEKAKDLILR [F8V] | 3.75
NWKETLVHPPEVPISEKAKDLILR [F8H] | 3.33
NWKETLVMPPEVPISEKAKDLILR [F8M] | 3.78
NWKETLVEPPEVPISEKAKDLILR [F8E] | 3.98
NWKETLVGPPEVPISEKAKDLILR [F8G] | 3.02
NWKETLVIPPEVPISEKAKDLILR [F8I] | 3.43
NWKETLVKPPEVPISEKAKDLILR [F8K] | 4.21
NWKETLVNPPEVPISEKAKDLILR [F8N] | 3.1
NWKETLQFPPEVPISEKAKDLILR [V7Q] | 3.95
NWKETLLFPPEVPISEKAKDLILR [V7L] | 3.65
NWKETLCFPPEVPISEKAKDLILR [V7C] | 3.35

Variant | protein stability index
NWKETLWFPPEVPISEKAKDLILR [V7W] | 4.68
NWKETLKFPPEVPISEKAKDLILR [V7K] | 2.95
NWKETLHFPPEVPISEKAKDLILR [V7H] | 3.27
NWKETLPFPPEVPISEKAKDLILR [V7P] | 4.19
NWKETLNFPPEVPISEKAKDLILR [V7N] | 3.63
NWKETLIFPPEVPISEKAKDLILR [V7I] | 3.09
NWKETLAFPPEVPISEKAKDLILR [V7A] | 3.52
NWKETLRFPPEVPISEKAKDLILR [V7R] | 2.72
NWKETLGFPPEVPISEKAKDLILR [V7G] | 4.56
NWKETLTFPPEVPISEKAKDLILR [V7T] | 3.33
NWKETLDFPPEVPISEKAKDLILR [V7D] | 3.81
NWKETLMFPPEVPISEKAKDLILR [V7M] | 2.94
NWKETLSFPPEVPISEKAKDLILR [V7S] | 2.54
NWKETLFFPPEVPISEKAKDLILR [V7F] | 2.63
NWKETLEFPPEVPISEKAKDLILR [V7E] | 3.53
NWKETLYFPPEVPISEKAKDLILR [V7Y] | 2.9
NWKHTLVFPPEVPISEKAKDLILR [E4H] | 2.82
NWKRTLVFPPEVPISEKAKDLILR [E4R] | 1.97
NWKCTLVFPPEVPISEKAKDLILR [E4C] | 2.16
NWKKTLVFPPEVPISEKAKDLILR [E4K] | 2.47
NWKPTLVFPPEVPISEKAKDLILR [E4P] | 2.85
NWKVTLVFPPEVPISEKAKDLILR [E4V] | 2.38
NWKWTLVFPPEVPISEKAKDLILR [E4W] | 1.78
NWKGTLVFPPEVPISEKAKDLILR [E4G] | 2.31

Variant | protein stability index
NWKNTLVFPPEVPISEKAKDLILR [E4N] | 1.76
NWKDTLVFPPEVPISEKAKDLILR [E4D] | 3.01
NWKITLVFPPEVPISEKAKDLILR [E4I] | 1.69
NWKTTLVFPPEVPISEKAKDLILR [E4T] | 2.57
NWKFTLVFPPEVPISEKAKDLILR [E4F] | 2.29
NWKATLVFPPEVPISEKAKDLILR [E4A] | 2.1
NWKQTLVFPPEVPISEKAKDLILR [E4Q] | 2.62
NWKYTLVFPPEVPISEKAKDLILR [E4Y] | 1.32
NWKMTLVFPPEVPISEKAKDLILR [E4M] | 2.58
NWKSTLVFPPEVPISEKAKDLILR [E4S] | 2.32
NWKEYLVFPPEVPISEKAKDLILR [T5Y] | 2.62
NWKECLVFPPEVPISEKAKDLILR [T5C] | 2.44
NWKEPLVFPPEVPISEKAKDLILR [T5P] | 3.42
NWKEQLVFPPEVPISEKAKDLILR [T5Q] | 4.08
NWKEWLVFPPEVPISEKAKDLILR [T5W] | 2.05
NWKERLVFPPEVPISEKAKDLILR [T5R] | 3.12
NWKEILVFPPEVPISEKAKDLILR [T5I] | 2.53
NWKEVLVFPPEVPISEKAKDLILR [T5V] | 2.61
NWKEMLVFPPEVPISEKAKDLILR [T5M] | 2.75
NWKEALVFPPEVPISEKAKDLILR [T5A] | 3.27
NWKEELVFPPEVPISEKAKDLILR [T5E] | 2.36
NWKELLVFPPEVPISEKAKDLILR [T5L] | 2.09
NWKEKLVFPPEVPISEKAKDLILR [T5K] | 2.48
NWKEHLVFPPEVPISEKAKDLILR [T5H] | 3.2

Variant | protein stability index
NWKEDLVFPPEVPISEKAKDLILR [T5D] | 3.65
NWKENLVFPPEVPISEKAKDLILR [T5N] | 3.36
NWKESLVFPPEVPISEKAKDLILR [T5S] | 2.87
NWKETRVFPPEVPISEKAKDLILR [L6R] | 2.83
NWKETWVFPPEVPISEKAKDLILR [L6W] | 2.74
NWKETFVFPPEVPISEKAKDLILR [L6F] | 3.31
NWKETIVFPPEVPISEKAKDLILR [L6I] | 2.86
NWKETYVFPPEVPISEKAKDLILR [L6Y] | 3.39
NWKETQVFPPEVPISEKAKDLILR [L6Q] | 3.87
NWKETNVFPPEVPISEKAKDLILR [L6N] | 3.55
NWKETVVFPPEVPISEKAKDLILR [L6V] | 3.15
NWKETCVFPPEVPISEKAKDLILR [L6C] | 3
NWKETKVFPPEVPISEKAKDLILR [L6K] | 3.53
NWKETMVFPPEVPISEKAKDLILR [L6M] | 3.31
NWKETTVFPPEVPISEKAKDLILR [L6T] | 3.46
NWKETEVFPPEVPISEKAKDLILR [L6E] | 3.66
NWKETDVFPPEVPISEKAKDLILR [L6D] | 3.93
NWKETAVFPPEVPISEKAKDLILR [L6A] | 4.04
NWKETHVFPPEVPISEKAKDLILR [L6H] | 2.61
NWKETSVFPPEVPISEKAKDLILR [L6S] | 3.62
NWKETGVFPPEVPISEKAKDLILR [L6G] | 1.5
NWKETPVFPPEVPISEKAKDLILR [L6P] | 4.16
